Data as given in patent US20140065111A1 (published 2014).

Target: T1, human gp100 peptide on H-2Db (mouse)
T1 peptide: KVPRNQDWL
Assay: multimer staining
Procedure: Monomers of H2D^b mouse MHC class I molecules loaded with the human gp100 peptide KVPRNQDWL were ordered from the NIH tetramer facility. Monomers were conjugated to APC-Streptavidin (eBiosience) by incubation on ice. Cells were stained with tetramers for 1H in concentrations of 0.178 μg tetramers for 1 million cells in total volume of 50 μl of PBS supplemented with 0.5% BSA and 0.1% of Na-Azide.
After testing the expression and presence of the CD3-TCR complex on the cell surface it is essential to determine the capability of the TCR to bind the MHC-class I molecule presenting the gp100 peptide. In order to test binding capability of the TCR a tetramer staining assay was performed. The tetramer staining assay is designed for testing TCR-MHC binding and was previously described (Ogg and McMichael, 1998). Briefly, the tetramer is a complex of four monomers. Each monomer formed from a mouse MHC-class I molecule, H-2D^b, presenting the human gp100 peptide KVPRNQDWL. The H-2D^b molecule is conjugated to a biotin molecule. The tetramers are assembled by linking four biotin conjugated monomers to one molecule of APC-conjugated Streptavidin. The 293TREx-CD3-Pmel-TCR cells were stained with the tetramers and analyzed by FACS.

B1: Pmel-TCR (TCR, V domains shown)
Valpha: QQKVQQSPESLTVSEGAMASLNCTFSDRSSDNFRWYRQHSGKGLEVLVSIFSDGEKEEGSFTAHLNRASLHVFLHIREPQPSDSALYLCAVNTGNYKYVFGAGTRLKVIA
Vbeta: EAGVTQSPRYAVLQEGQAVSFWCDPISGHDTLYWYQQPRDQGPQLLVYFRDEAVIDNSQLPSDRFSAVRPKGTNSTLKIQSAKQGDTATYLCASSFHRDYNSPLYFAAGTRLTVT
- binding result: recognises
